Molecular target: HLA-DR (human)
Assay: cell-based or functional assay

IFN-gamma production, decrease in the presence of HLA-DR blocking antibodies: 32 to 80%
B1: HPIV3 Matrix Epitope Peptide 84 (…) (peptide)
peptide: GEFRYYPNIIAKGVG
